Assay results reported in US20230312724A1 (KADMON, published 2023).

B1: Control antibody 1 (antibody 20502 described in US20190085080A1) (antibody, V domains shown)
VH: QLQLQESGPGLVKPSETLSLTCTVSGGSIKSGSYYWGWIRQPPGKGLEWIGNIYYSGSTYYNPSLRSRVTISVDTSKNQFSLKLSSVTAADTAVYYCAREGSYPNQFDPWGQGTLVTVSS
VL: EIVMTQSPATLSVSPGERATLSCRASQSVSSNLAWYQQKPGQAPRLLIYGASTRATGIPARFSGSGSGTEFTLTISSLQSEDFAVYYCQQYHSFPFTFGGGTKVEIK
notes: also called (+) control Ab1; (+) Ab1
B2: 39A11/57G8 (antibody, human IgG1, V domains shown)
VH: EVQLLESGGGLVQPGGSLRLSCAASGFTFSSYGMHWVRQAPGKGLEWVASISSSSGYIYYADSVKGRFTISRDNSKNTLYLQMNSLRAEDTAVYYCARASSGMDVWGQGTTVTVSS
VL: DIQMTQSPSSLSASVGDRVTITCRASQSIRSYLNWYQQKPGKAPKLLIYYASSLQSGVPSRFSGSGSGTDFTLTISSLQPEDFATYYCQQYYSTPLTFGQGTKVEIK
notes: 39A11 VH with 57G8 VL

How the values were obtained:
[1] = molecular target: T1, human B7-H4-his (human, UniProt Q7Z7D3 25-259); experiment: ELISA on coated hB7-H4-his
T1 construct: also called hB7-H4-his; hB7-H4 his; not shown: his tag
T1 sequence: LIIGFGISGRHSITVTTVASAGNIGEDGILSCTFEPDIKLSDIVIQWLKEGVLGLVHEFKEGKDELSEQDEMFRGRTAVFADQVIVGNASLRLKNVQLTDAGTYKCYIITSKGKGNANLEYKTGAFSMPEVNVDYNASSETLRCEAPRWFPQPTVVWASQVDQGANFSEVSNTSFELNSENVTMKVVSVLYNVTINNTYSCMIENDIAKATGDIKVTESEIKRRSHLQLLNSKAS
Procedure: (§1) About 1-2 μg/ml of human or mouse B7-H4-Fc (or his-tagged) was immobilized on ELISA plates (Immuno 2HB, Thermo scientific, cat #3455) at 4° C. overnight. After blocking the plates with 3% PBS+milk, serial diluted antibodies were added to the blocked plates and incubated at RT for 1-1.5 h. After washing the plates with PBS-T (0.05%), horse radish peroxidase (HRP)-conjugated antibody targeting the hFab was added to the plate. Signals were developed by adding 3,3′,5,5′-Tetramethylbenzidine (TMB (followed 1N of H₂SO₄ to stop the reaction. The OD at 450 nm was read by ELISA plate reader (Infinite M1000 from TECAN). GraphPad from Prism was used to plot OD450 vs. antibody concentration curve and to calculate the EC50 values.

[2] = molecular target: T2, IgV domain of human B7-H4-Fc (human); experiment: ELISA, coated hB7-H4 IgV domain
T2 construct: also called hB7-H4 IgV domain
Procedure: ELISA experiments were performed to determine binding to hB7-H4-Fc (FIG. 5A), hB7-H4-his (FIG. 5B), mB7-H4-Fc domain (FIG. 5C), hB7-H4 IgV domain (FIG. 5D), and hB7-H4 IgC domain (FIG. 5E). Flow cytrometry experiments were performed to determine binding to CHO cells expressing hB7-H4 (FIG. 5F) or mB7-H4 (FIG. 5G). […] A cross-reactive IgV binding antibody and an IgC binding antibody were used as controls.
as §1

[3] = molecular target: T2, IgV domain of human B7-H4-Fc; experiment: ELISA on coated IgV domain of hB7-H4
Procedure: as §1

[4] = molecular target: T3, mouse B7-H4-Fc (mouse; human); experiment: ELISA, coated mB7-H4-Fc
T3 construct: also called mB7-H4-Fc; mB7-H4-hFc
How it was run: (§2)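 EC50 values come from fitted OD450-versus-antibody-concentration curves. Antibody dilution series bound for 1-1.5 h at RT to plates coated overnight at 4° C with about 1-2 μg/ml human or mouse B7-H4-Fc or His-tagged protein, milk-blocked. Detection used HRP-conjugated anti-hFab with TMB substrate and an acid stop.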

[5] = molecular target: T4, mouse B7-H4-his (mouse, UniProt Q7TSP5 25-257); experiment: ELISA on coated mB7-H4-his
T4 construct: also called mB7-H4-his; mB7-H4-His; not shown: his tag
T4 sequence: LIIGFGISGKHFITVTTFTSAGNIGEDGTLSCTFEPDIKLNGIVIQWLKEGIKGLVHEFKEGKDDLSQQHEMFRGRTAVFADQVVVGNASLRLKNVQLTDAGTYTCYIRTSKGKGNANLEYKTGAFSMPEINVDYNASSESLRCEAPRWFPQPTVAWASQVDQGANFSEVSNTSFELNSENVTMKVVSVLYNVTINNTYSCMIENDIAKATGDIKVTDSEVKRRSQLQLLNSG
Procedure: as §1

[6] = molecular target: T2, IgV domain of human B7-H4-Fc; experiment: ELISA, coated hB7-H4 IgV domain; remark: listed apart in the source
How it was run: as §2

[7] = molecular target: T3, mouse B7-H4-Fc; experiment: ELISA on coated mB7-H4-Fc
Procedure: as §1

[8] = molecular target: T5, IgC domain of mouse B7-H4-Fc (mouse; human); experiment: ELISA, coated mB7-H4 IgC domain
T5 construct: also called mB7-H4 IgC domain

[9] = molecular target: T6, hB7-H4 (soluble human B7-H4, construct not named) (human, UniProt Q7Z7D3 25-259, limits assumed); experiment: ELISA, hB7-H4
T6 construct: also called soluble hB7-H4
T6 sequence: T1 sequence
How it was run: as §2

[10] = molecular target: T6, hB7-H4 (soluble human B7-H4, construct …); experiment: SPR (Biacore)
How it was run: (§3)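 Kinetic constants came from a 1:1 Langmuir fit of binding at 25 °C in HBS-EP, pH 7.4. Analyte (100 nM to 0.1 nM) flowed for 180 s, then dissociated for 1000 or 1200 s, over amine-coupled human B7-H4-Fc, human B7-H4-his or mouse B7-H4-Fc surfaces at 50-100 RU.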

[11] = molecular target: T7, mB7-H4 (soluble mouse B7-H4, construct not named) (mouse, UniProt Q7TSP5 25-257, limits assumed); experiment: SPR (Biacore)
T7 sequence: T4 sequence
How it was run: as §3

T2 sequence (chain, as listed by the source): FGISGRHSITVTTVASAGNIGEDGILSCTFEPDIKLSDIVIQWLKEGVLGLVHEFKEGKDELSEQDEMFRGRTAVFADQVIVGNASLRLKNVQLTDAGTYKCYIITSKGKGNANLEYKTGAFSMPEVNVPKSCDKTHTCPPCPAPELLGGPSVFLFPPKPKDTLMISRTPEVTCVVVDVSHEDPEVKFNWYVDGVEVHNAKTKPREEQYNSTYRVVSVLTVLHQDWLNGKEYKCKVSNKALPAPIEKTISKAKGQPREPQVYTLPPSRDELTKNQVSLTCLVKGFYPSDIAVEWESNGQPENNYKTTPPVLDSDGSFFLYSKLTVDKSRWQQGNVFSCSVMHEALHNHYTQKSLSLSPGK
T3 sequence (chain, as listed by the source): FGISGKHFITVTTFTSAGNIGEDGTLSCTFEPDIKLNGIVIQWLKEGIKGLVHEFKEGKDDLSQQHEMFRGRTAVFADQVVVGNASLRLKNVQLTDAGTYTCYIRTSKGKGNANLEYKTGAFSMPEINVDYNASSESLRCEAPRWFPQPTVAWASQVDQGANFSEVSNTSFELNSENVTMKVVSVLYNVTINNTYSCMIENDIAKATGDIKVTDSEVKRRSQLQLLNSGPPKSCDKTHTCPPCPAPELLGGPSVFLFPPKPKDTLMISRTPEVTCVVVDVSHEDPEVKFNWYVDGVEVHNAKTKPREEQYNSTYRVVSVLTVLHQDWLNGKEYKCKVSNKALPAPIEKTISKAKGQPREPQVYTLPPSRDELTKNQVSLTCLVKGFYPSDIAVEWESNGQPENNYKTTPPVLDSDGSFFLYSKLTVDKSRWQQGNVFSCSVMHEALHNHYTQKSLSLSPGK
T5 sequence (chain, as listed by the source): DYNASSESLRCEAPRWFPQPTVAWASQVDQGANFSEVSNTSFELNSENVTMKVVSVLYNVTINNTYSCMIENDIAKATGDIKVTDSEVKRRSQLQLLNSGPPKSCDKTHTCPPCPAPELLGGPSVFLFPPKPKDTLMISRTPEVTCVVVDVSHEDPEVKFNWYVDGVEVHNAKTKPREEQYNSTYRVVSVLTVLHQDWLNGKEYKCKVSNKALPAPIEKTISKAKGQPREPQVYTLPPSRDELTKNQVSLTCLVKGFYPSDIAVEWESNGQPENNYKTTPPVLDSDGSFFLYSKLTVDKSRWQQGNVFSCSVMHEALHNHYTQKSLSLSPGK

| EC50 (read off the curve) [1] [nM] | EC50 (read off the curve) [2] [nM] | EC50 (read off the curve) [3] [nM] | EC50 (read off the curve) [4] [nM] | EC50 (read off the curve) [5] [nM] | EC50 (read off the curve) [6] [nM] | EC50 (read off the curve) [7] [nM] | binding result [8] | EC50 [9] [nM] | Kd [10] [nM] | Kd [11] [nM] | Binder |
| --- | --- | --- | --- | --- | --- | --- | --- | --- | --- | --- | --- |
| ~0.2 | ~0.2 | ~0.2 | ~0.1 | ~0.2 | ~0.2 | ~0.1 | no binding (tested: log 1 nM (10 nM)) | – | – | – | B1 |
| ~0.1 | – | – | – | – | – | – | no binding (tested: log 1 nM (10 nM)) | 0.068 | 0.303 | 0.0998 | B2 |
